From article doi:10.1101/2022.12.09.519754, “Conformational restriction shapes inhibition of a multidrug efflux adaptor protein” (bioRxiv, 2022)
Changes are numbered by the printed parent chain.

T1: AcrB in SMALP (styrene maleic acid lipid particle) native nanodiscs (E. coli, UniProt P31224 1-1049)
T1 construct: AcrB, inner membrane transporter of AcrAB-TolC, E. coli; Embedded in native lipid nanodiscs; also called trimeric AcrB SMALPs; source: E. coli C43(DE3) ΔacrAB, pET15b; extracted from membranes with 2.5% SMA 2000, purified (nickel NTA, PD-10 desalting)
T1 sequence: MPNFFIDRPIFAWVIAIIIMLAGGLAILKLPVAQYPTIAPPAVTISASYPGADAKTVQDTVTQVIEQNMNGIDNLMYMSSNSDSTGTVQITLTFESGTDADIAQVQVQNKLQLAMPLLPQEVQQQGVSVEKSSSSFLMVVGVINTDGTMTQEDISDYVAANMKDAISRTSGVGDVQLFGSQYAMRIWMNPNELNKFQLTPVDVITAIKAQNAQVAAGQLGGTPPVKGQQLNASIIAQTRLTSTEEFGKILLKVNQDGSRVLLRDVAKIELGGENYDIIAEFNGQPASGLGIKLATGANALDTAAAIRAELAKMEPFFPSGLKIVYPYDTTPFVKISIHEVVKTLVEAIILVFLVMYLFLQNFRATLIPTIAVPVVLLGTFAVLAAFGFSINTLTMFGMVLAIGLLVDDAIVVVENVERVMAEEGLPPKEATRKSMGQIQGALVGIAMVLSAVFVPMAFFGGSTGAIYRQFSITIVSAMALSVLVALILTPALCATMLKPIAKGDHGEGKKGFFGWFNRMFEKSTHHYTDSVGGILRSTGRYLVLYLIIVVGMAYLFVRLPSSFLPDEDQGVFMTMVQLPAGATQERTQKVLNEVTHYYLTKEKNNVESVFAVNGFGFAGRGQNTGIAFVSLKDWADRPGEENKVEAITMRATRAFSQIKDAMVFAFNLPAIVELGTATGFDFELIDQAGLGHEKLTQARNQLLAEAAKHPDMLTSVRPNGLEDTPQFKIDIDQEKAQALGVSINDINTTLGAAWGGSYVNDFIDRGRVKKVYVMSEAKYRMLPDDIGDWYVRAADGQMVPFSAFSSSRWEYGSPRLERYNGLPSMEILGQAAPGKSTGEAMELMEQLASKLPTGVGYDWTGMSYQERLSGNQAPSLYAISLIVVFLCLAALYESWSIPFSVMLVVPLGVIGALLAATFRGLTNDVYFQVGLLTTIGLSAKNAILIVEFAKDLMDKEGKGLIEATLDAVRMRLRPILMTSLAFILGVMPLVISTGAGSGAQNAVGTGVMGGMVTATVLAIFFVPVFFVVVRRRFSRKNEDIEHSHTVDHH

B1: AcrA^L (lipidated AcrA, expressed from full length AcrA with its signal peptide) (natural protein)
chain: CDDKQAQQGGQQMPAVGVVTVKTEPLQITTELPGRTSAYRIAEVRPQVSGIILKRNFKEGSDIEAGVSLYQIDPATYQATYDSAKGDLAKAQAAANIAQLTVNRYQKLLGTQYISKQEYDQALADAQQANAAVTAAKAAVETARINLAYTKVTSPISGRIGKSNVTEGALVQNGQATALATVQQLDPIYVDVTQSSNDFLRLKQELANGTLKQENGKAKVSLITSDGIKFPQDGTLEFSDVTVDQTTGSITLRAIFPNPDHTLLPGMFVRARLEEGLNPNAILVPQQGVTRTPRGDATVLVVGADDKVETRPIVASQAIGDKWLVTEGLKAGDRVVISGLQKVRPGVQVKAQEVTADNNQQAASGAQPEQSKS
modifications: lipidated (palmitoylation) at Cys25 after cleavage of signal peptide 1-24
notes: AcrA, periplasmic adaptor protein of AcrAB-TolC, E. coli; full length AcrA amplified from genomic DNA; signal peptide residues 1-24 are cleaved and Cys25 is lipidated, so the protein in the assay starts at Cys25; Measured in DDM micelles (0.03 % DDM, 2 x CMC); source: E. coli C43(DE3) ΔacrAB, pET28a; solubilised from membranes with 1% DDM, purified (HiTrap, SEC) in 0.03% DDM
B2: AcrA^S (soluble AcrA lacking signal peptide and lipidation, Cys25Met) (natural protein)
chain: B1 chain with C1M
notes: AcrA, E. coli; lacks signal peptide residues 1-24; Cys25 replaced by a starting methionine (Met25); not lipidated; source: E. coli C43(DE3) ΔacrAB, pET28a; purified from the cytoplasmic fraction (HiTrap, SEC)

Key:
[1] = molecular target: the molecule itself; assay: native MS; AcrA^L in 100 mM ammonium acetate pH 7.4 with 0.03 % DDM
[2] = molecular target: the molecule itself; assay: native MS; AcrA^L in 100 mM ammonium acetate pH 6.0 with 0.03 % DDM (2 x CMC); sampling cone 120 V, trap collision energy 50-200 V
[3] = molecular target: T1, AcrB in SMALP (styrene maleic acid …); assay: native gel or EMSA; SMA-PAGE (native PAGE for SMALPs): AcrB in SMALP nanodiscs with AcrA^S or AcrA^SD; Novex Tris-glycine 4-20% gels, 25 mM Tris pH 8.8, 192 mM glycine, 150 V, 90-120 min, 4 °C, Coomassie stain; details: both partners purified

Binder	stoichiometry N [1]	stoichiometry N [2]	stoichiometry N [3]
B1	≤ 5	2	–
B2	–	–	1
